From patent publication US20200138716A1, “COMPOSITIONS AND METHODS FOR INDUCING NANOPARTICLE-MEDIATED MICROVASCULAR EMBOLIZATION OF TUMORS” (Poseida Therapeutics, Inc., priority 2014, published 2020)

How the values were obtained:
[1] = Biodistribution and pharmacokinetics after IV injection in 4T1 tumor-bearing mice; assay type: in vivo, balb/c mice; conditions: via the kidneys and into the bladder
Experimental: In example studies, 0.5×106 to 1×10^6 4T1 mouse mammary carcinoma cells were injected into the mammary fat pads of balb/c mice. Once the tumors were greater than 5 mm in diameter, mice were randomized and treated via tail vein catheter with PEMs (at 100 μL of 2.5 mg/mL Mb, corresponding to 50 mg/mL polymer suspensions), empty polymersomes (at equivalent polymer doses), and NIR-Mb (at equivalent myoglobin doses) (n=5 per group). NIR-Mb and PEM were reduced to their oxy-myoglobin form prior to treatment, following protocols discussed above. […]
Fluorescence images were analyzed with Living Image) 4.2 software by measuring radiant efficiency of regions of interest (ROIs). […] The total radiant efficiency of the plasma in each capillary tube was measured in a region of interest of consistent dimensions. Plasma concentrations of PEM and empty polymersomes were calculated based on a standard curve, which was first determined by adding solutions of known concentrations of PZn3-loaded emissive polymersomes to untreated plasma and measuring fluorescence from the capillary tubes. […] Myoglobin concentration versus time was estimated based on the PZn3 fluorescence of the PEM and the IRDye800 fluorescence of NIR-Mb, respectively, with the assumption that all myoglobin remained associated with the PEM following injection.

[2] = Serum chemistry panel in tumor-bearing mice; assay type: in vivo; conditions: n=5 mice per treatment
Experimental: In example studies, 0.5×106 to 1×10^6 4T1 mouse mammary carcinoma cells were injected into the mammary fat pads of balb/c mice. Once the tumors were greater than 5 mm in diameter, mice were randomized and treated via tail vein catheter with PEMs (at 100 μL of 2.5 mg/mL Mb, corresponding to 50 mg/mL polymer suspensions), empty polymersomes (at equivalent polymer doses), and NIR-Mb (at equivalent myoglobin doses) (n=5 per group). NIR-Mb and PEM were reduced to their oxy-myoglobin form prior to treatment, following protocols discussed above. Mice were sacrificed at 24 h (for biodistribution/pharmacokinetic studies) or at 6-9 days (for histology and toxicology assessment following tumor efficacy studies). In both cases, EF-5 was used to stain for hypoxia and Hoechst solution for perfusion. Tumors were collected at sacrifice. Immunofluorescence (IF) was carried out to image EF-5 and Hoechst distribution throughout the tumors. The same tumor sections were also stained with hematoxylin and eosin (H&E) for immunohistologic (IHC) analysis. Blood was collected via cardiac puncture at sacrifice; plasma was isolated and stored at −80° C. for later analyses.
FIG. 21 provides results of a serum chemistry panel done for a set of tumor-bearing mice injected with each of the following treatments (n=5 mice per treatment): NIR-myoglobin (control), empty polymersomes (control), and PEMs.

B1: NIR-Mb: near-infrared fluorophore (IRDye800cw NHS) covalently attached to the lysines on horse skeletal myoglobin (conjugate, UniProt P68082 2-154, looked up)
Myoglobin: GLSDGEWQQVLNVWGKVEADIAGHGQEVLIRLFTGHPETLEKFDKFKHLKTEAEMKASEDLKKHGTVVLTALGGILKKKGHHEAELKPLAQSHATKHKIPIKYLEFISDAIIHVLHSKHPGDFGADAQGAMTKALELFRNDIAAKYKELGFQG
modifications: IRDye800CW on lysines
notes: near-infrared fluorophore (IRDye800cw NHS) covalently attached to the lysines on horse skeletal myoglobin
With B1 the plasma clearance [1] was “extremely rapid plasma clearance” and the serum chemistry panel [2] was “no consistently elevated levels for any parameter”.
